Source: paper PMC5662737, “Structural and mechanistic insights into ATRX-dependent and -independent functions of the histone chaperone DAXX” (Nature Communications, 2017)
Substitutions are numbered along the chain they refer to. Names and notes keep the numbering of the source.

B1: human ATRX DAXX-binding motif (DBM) peptide, wild type (peptide, UniProt P46100 1265-1288, looked up)
peptide: NDPENRIAKKMLLEEIKANLSSDE
notes: The limits 1265–1288 are printed for the DBM of the fusion construct; also called ATRX DBM; hATRX DBM; source: synthetic peptide (Tufts University Peptide Core Facility)
B2: human ATRX DBM peptide I1280A (peptide, UniProt P46100 1265-1288, looked up)
peptide: NDPENRIAKKMLLEEAKANLSSDE
notes: ATRX, human, DBM, residues 1265-1288, with I1280A; Limits as for m4; also called ATRX I1280A mutant; source: synthetic peptide (Tufts University Peptide Core Facility)

Assays:
hDAXX 4HB F87A = target: T1, hDAXX 4HB F87A (Homo sapiens); experiment: ITC
T1 chain: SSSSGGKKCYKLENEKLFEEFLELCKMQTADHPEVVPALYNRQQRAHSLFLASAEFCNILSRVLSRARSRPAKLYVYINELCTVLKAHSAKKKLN

[1] = target: T2, human DAXX four-helix bundle domain (4HB, residues 50–144) (human, UniProt Q9UER7 50-144); experiment: ITC; 17 injections of 2.2 μl ATRX DBM peptide (1.5 mM) into 200 µl DAXX 4HB or mutants (150 µM); 20 °C; 20 mM Tris pH 7.5, 0.3 M NaCl; single site-binding model; settings: both partners purified
T2 construct: DAXX (death-domain-associated protein), human, N-terminal four-helix bundle, residues 50-144; Expressed and purified 'in a similar way' as the fusion protein (His6-SUMO removed with Ulp1); also called DAXX 4HB; hDAXX 4HB; source: E. coli BL21(DE3)-RIL, purified (Ni-NTA, heparin, Superdex 200); not shown: His6-SUMO, N-terminal, cleaved
T2 sequence (looked up): T1 chain with A38F

[2] = target: T3, human DAXX 4HB F87L (tumor mutation) (human, UniProt Q9UER7 50-144, F87L); experiment: as above; settings: both partners purified
T3 construct: DAXX, human, four-helix bundle, residues 50-144, with the tumor mutation F87L; also called DAXX F87L; source: E. coli BL21(DE3)-RIL, purified (Ni-NTA, heparin, Superdex 200); not shown: His6-SUMO, N-terminal, cleaved
T3 sequence (looked up): T1 chain with A38L

[3] = target: T4, human DAXX four-helix bundle domain (4HB, residues 50–144) (human, UniProt Q9UER7 50-144); experiment: ITC
T4 chain: T1 chain with A38F

| Binder | Kd (hDAXX 4HB F87A) [µM] | Kd [1] [µM] | Kd [2] [µM] | Kd [3] [µM] | fold weaker binding than wild-type ATRX DBM [1] [fold] |
| --- | --- | --- | --- | --- | --- |
| B1 | 7.5 | 0.9 | 33.8 | – | – |
| B2 | – | – | – | 12.9 | ~14 |
